In test [1] the target is TDP-43 C-terminal domain (TDP-43CTD) (267-414) (UniProt Q13148). The test can be described thus: co-sedimentation.
For test [2] the target is unchanged. The test can be described thus: co-sedimentation. The source holds these as a separate data set.

Where two headings read alike, the source gives them in different places.

UniProt Q13148, sequence (Q13148 267-414): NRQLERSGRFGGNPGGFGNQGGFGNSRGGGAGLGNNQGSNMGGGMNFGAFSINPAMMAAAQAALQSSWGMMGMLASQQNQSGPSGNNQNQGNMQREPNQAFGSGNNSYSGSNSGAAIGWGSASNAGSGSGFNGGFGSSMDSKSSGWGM

As for “GRN-5 (granulin-5, oxidized) (domain or fragment)”, the stoichiometry N (GRN per TDP-43CTD) in test [1] stood at 0.75; in test [2], 0.73.

Take “rGRN-5 (granulin-5, fully reduced) (domain or fragment)”: the stoichiometry N (GRN per TDP-43CTD) in test [1] was found to be 1.1.

The values above are taken from publication doi:10.1101/812115.
